The record followed here is patent US20210230244A1 (NATIONAL INSTITUTE OF IMMUNOLOGY, published 2021).

The target of the test is T1, Abeta 1-42 peptide.
T1 construct: Used at 100 micromolar in PBS pH 7.4 at 37 C, where it aggregates into oligomers and fibrils, so it was not a defined monomer in the assays; also called Abeta42; Abeta 42
As to the kind of experiment: Glu-OC (25 ng-0.1 ng) incubated with 100 micromolar Abeta42; A11 reactivity and AFM.

Bridge positions count the residues as written; N and C are the ends. Ends that are not written are not given here.

T1 sequence (peptide, as listed by the source): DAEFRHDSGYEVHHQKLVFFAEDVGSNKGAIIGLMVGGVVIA

B1: undercarboxylated osteocalcin (peptide)
peptide: YLYQWLGAPVPYPDPLEPRREVCELNPDCDELADHIGFQEAYRRFYGPV
modifications: disulfide 23-29
notes: also called Glu-OC; uncarboxylated osteocalcin
As for B1, the binding result is listed as “binds”.
